The source of these data is patent US20100239597A1.

Numbering of substitutions follows the chain as printed.

The target in assay [1] is biotinylated ADDL (bADDL) (UniProt P05067). Put plainly: BIACORE, bADDL as antigen; IgG1#1. Background: In SPR one partner is held on a chip, and binding of the other changes the refractive index at the surface.
The target in assay [2] is biotin-Aβ1-20 (UniProt P05067). Description: BIACORE, biotin-Aβ1-20 as antigen; IgG1#1.
Assay [3] has as its target biotinylated ADDL (bADDL) (UniProt P05067). Description: BIACORE, bADDL as antigen; IgG1#2.
Assay [4] addresses biotin-Aβ1-20 (UniProt P05067). Put plainly: BIACORE, biotin-Aβ1-20 as antigen; IgG1#2.

B1: 20C2-6B IgG1 (antibody, V domains shown)
VH: QVTLKESGPALVKPTQTLTLTCTLSGFSLSTSGMGVGWIRQPPGKALEWLAHIWWDDDKSYNPSLKSRLTISKDTSKNQVVLTMTNMDPVDTATYYCARRQLGLRSIDAMDYWGQGTTVTVSS
VL: DVVMTQSPLSLPVTPGEPASISCRSSQSILHSNGNTYLEWYLQKPGQSPQLLIYKVSNRFSGVPDRFSGSGSGTDFTLKISRVEAEDVGVYYCFQSSRVPLTFGQGTKLEIK
As a reminder, the Kd is the equilibrium constant for the complex coming apart. Turning to B1, the Kd (in assay [1]; in the assay with biotin-Aβ1-20 [2]) was 0.053 nM in each case.

B2: 20C2-8B IgG1 (antibody, V domains shown)
VH: B1 VH
VL: B1 VL with F94L, S96T, S97T
Regarding B2, the Kd worked out at 0.013 nM in assay [1], 0.0008 nM in assay [3], 0.046 nM with biotin-Aβ1-20 [2] and 0.064 nM in the assay with biotin-Aβ1-20 [4].
